Results published in article PMC9723616.

Molecular target: T1, FemX (UniProt Q9EY50 1-336)
T1 sequence: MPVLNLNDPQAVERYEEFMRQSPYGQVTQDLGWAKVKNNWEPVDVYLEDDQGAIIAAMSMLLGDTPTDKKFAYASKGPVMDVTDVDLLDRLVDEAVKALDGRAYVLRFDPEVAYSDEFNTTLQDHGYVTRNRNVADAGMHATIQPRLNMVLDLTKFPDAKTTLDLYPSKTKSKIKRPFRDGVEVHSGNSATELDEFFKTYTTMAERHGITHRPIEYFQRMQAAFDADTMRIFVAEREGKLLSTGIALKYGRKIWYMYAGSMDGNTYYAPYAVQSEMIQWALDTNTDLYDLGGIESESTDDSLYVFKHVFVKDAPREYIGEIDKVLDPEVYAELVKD
Test: competition

B1: compound 17 (2'F-RNA stem peptidyl-helix, 24 nt) (XNA)
RNA: GGGGCCUUAGCUCAGGCUCCACCA
modifications: 2'F-RNA in stem (14 F); dC at penultimate position (pdCpA); 2'-azido-2'-deoxy A76 joined by triazole to UDP-MurNAc-pentapeptide
- Ki: 0.397 ± 0.107 nM

B2: compound 20 (2'F-ANA stem peptidyl-helix, 24 nt) (XNA)
RNA: GGGGCCUUAGCUCAGGCUCCACCA
modifications: 2'F-ANA in stem (14 F); dC at penultimate position (pdCpA); 2'-azido-2'-deoxy A76 joined by triazole to UDP-MurNAc-pentapeptide
- Ki: 221 ± 10 nM
